How the values were obtained:
[1] = molecular target: T1, human CXCR4 (cell-expressed) (human, UniProt P61073 1-352); assay: cell-based or functional assay
[2] = molecular target: T1, human CXCR4 (cell-expressed); assay: cell-based or functional assay; remark: listed apart in the source
[3] = molecular target: T2, cynomolgus CXCR4 (cynomolgus monkey, UniProt Q28474 1-352); assay: flow cytometry on CHO-S cells expressing cynomolgus CXCR4, anti-human Alexa Fluor 647 secondary antibody, GeoMean (647 nm)
T2 construct: also called cyno CXCR4; cynomolgus monkey CXCR4
T2 sequence (Q28474 whole entry): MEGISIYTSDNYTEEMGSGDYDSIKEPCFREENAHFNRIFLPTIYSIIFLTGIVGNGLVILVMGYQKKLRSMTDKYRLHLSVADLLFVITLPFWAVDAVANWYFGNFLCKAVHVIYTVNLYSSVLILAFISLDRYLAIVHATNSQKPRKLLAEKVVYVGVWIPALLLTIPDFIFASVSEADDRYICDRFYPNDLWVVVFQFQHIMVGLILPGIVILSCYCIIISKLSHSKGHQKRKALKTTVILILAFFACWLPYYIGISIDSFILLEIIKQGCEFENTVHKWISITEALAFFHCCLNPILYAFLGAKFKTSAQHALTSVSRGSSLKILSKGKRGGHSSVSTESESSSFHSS
Description: Cynomolgus monkey CXCR4 expressing CHO-S cells were plated at 100 uL/well of cells at 1 million of cells/mL (0.1 million of cells/well) into a 96 well V-bottom plate (Greiner). Plates were centrifuged at 300×g for 3 min at 4° C. and supernatant discarded. […] Primary antibody dilutions were added to cells (50 μL/well) and cell pellets resuspended by pipetting. Plates was incubated for 1 h at 4° C. 100 μL/well of PBS, was added and plates centrifuged at 300×g for 3 min at 4° C. and supernatant discarded. This step was repeated twice. […] Cells were resuspended by pipetting. Plates were incubated for 1 h at 4° C. 100 μL/well PBS, was added and plates centrifuged at 300×g for 3 min at 4° C. and supernatant discarded. This step was repeated twice. Finally, cells were resuspended in 100 μL/well of PBS and analysed on CytoFLEX (Beckman Coulter).
Binding of antibodies to cynomolgus CXCR4 expressed on CHO-S cells was analysed by gating the main cell population using forward and side scatter (Flow Jo, Flow Jo LLC) to allow for doublet discrimination. […] EC₅₀ values were calculated by transforming the data and fitting a 4-parameter logistic regression curve to each antibody titration.

T1 sequence (P61073 whole entry): as the sequence (Q28474 whole entry) above, with I24M, H35N, R38K, K146R, S176N counted along it

B1: CL-148729 (antibody, human IgG4 S228P, lambda, V domains shown)
VH: AVQLVESGGGLVQPGGSLKLSCAASGFTFSGSTMHWVRQASGRGLEWVGRIRSKADSYATAYSASVKGRFTISRDDSKKMAYLQMNSLKTEDMAVYYCTRSGDYWGQGTLVTVSS
VL: QSVLTQPPSVSAAPGQKVTISCSGSSSNIGKNYVAWYQQLPGTAPKLLIYDTNKRPSGIPDRFSGSKSGTSATLDITGLQTGDEADYYCGTWDISLSVGWLFGGGTKVTVLG
notes: Tested in human IgG4-PE format
Q: How did the “% Max Inhibition, cAMP HTRF assay, CXCR4 BacMam HEK-293 cells” value [1] turn out when B1 was run?
A: 114%

Q: What about the “IC50, cAMP HTRF assay, CXCR4 BacMam HEK-293 cells, 5.5 nM CXCL12” value [1] of the same binder?
A: 6 nM

Q: What about the “% Max Inhibition, beta-arrestin reporter assay, Tango CXCR4-bla U2OS cells” value [2] of the same binder?
A: 99.6%

Q: What about the “IC50, beta-arrestin reporter assay, Tango CXCR4-bla U2OS cells, 30 nM CXCL12” value [2] of the same binder?
A: 0.11 nM

Q: Does B1 bind [3]?
A: no binding (tested: log(M) about -6.9 (about 1.2e-7 M))

— patent US20240294651A1 (KYMAB, published 2024)
